Measurements published in patent US10456446B2, “Use of human small leucine zipper protein in osteogenesis procedure” (Korea University Research and Business Foundation, priority 2013, dated 2019).

Target: T1, PPARγ2 (Homo sapiens, UniProt P37231)
T1 construct: expressed in transfected cells; host or cells: 293T
T1 sequence (P37231 1-505): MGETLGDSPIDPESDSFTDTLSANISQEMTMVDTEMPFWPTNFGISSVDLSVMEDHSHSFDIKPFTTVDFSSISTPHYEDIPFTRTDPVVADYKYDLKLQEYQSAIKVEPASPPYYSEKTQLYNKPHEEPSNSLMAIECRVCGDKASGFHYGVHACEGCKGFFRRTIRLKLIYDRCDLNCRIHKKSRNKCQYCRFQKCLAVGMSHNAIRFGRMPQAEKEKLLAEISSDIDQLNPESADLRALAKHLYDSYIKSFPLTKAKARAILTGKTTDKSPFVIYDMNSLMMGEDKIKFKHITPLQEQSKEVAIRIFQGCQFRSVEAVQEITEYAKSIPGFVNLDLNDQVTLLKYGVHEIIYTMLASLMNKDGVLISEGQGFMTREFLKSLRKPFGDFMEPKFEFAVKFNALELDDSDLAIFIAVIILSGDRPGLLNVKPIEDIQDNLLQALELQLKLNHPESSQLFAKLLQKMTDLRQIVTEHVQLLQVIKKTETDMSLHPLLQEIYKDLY
Assay: PPARγ2 transcriptional activity, FABP4-Luc luciferase reporter in transfected 293T cells
Assay type: cell-based
Conditions: for PPARγ2 transcriptional activity (relative luciferase activity): sLZIP or deletion mutants 0.1 μg, RZD treated
Experimental: C3H10T1/2 and 293T cells were plated in a 12-well culture dish at a density of 2×10^5 cells/well and incubated for 24 hours. Then, according to instructions of the manufacturer, the cells were transfected with a 0.2 μg of reporter genes and 0.1 to 0.5 μg of a laboratory plasmid using Lipofectamine 2000 or Genefectine. After 24 hours, the cells were cultured in a serum-free DMEM with or without 10 nM of rosiglitazone. siRNAs were prepared using sLZIP and HDAC target sequences (Table 1). For an RNA interference experiment, according to instructions of the manufacturer, the cells were transfected with scrambled control group RNA and appropriate siRNAs using Lipofectamine 2000. Human MSC and C3H10T/1/2 cells were infected with an adenovirus vector containing cDNA of human sLZIP or an empty vector. The infected medium was exchanged with a fresh medium after two hours.
Appropriately transfected cells were washed with cold PBS twice, and a reporter lysis buffer (Promega) was used and lysed in a culture dish. Luciferase analysis was performed using a luciferase analysis system (Promega Corporation, Madison, Wis.). A luciferase activity was recorded in Luminometer 20/20^n (Turner BioSystems, Sunnyvale, Calif.) according to instructions of the manufacturer. The luciferase activity was normalized to a β-galactosidase activity. For β-galactosidase analysis, CMV-β-galactosidase was transfected with luciferase reporter genes. All pieces of data were represented as mean±standard deviation of the results from at least three independent experiments.
In order to examine an effect of sLZIP on the transcriptional activity of PPARγ2, 293T cells were temporarily transfected with PPARγ2 (0.5 μg), β-galactosidase (0.1 μg), FABP4-Luc reporter genes (0.2 μg) and sLZIP at different contents (0.1 to 0.5 μg). After the transfection, the cells were stimulated with or without 10 nM of rosiglitazone (RZD) (FIG. 1A), pioglitazone (PZD) (FIG. 1B), and troglitazone (TZD) (FIG. 1C). A relative luciferase activity was analyzed with or without cell ligand treatment 24 hours after transfection. Also, the 293T cells were transiently transfected with si-sLZIP at different contents (50 and 100 nM), and the cells were treated or not treated with RZD (FIG. 1D). FABP4-Luc stable C3H10T1/2 cells were infected with a sLZIP-expressing adenovirus, and then differentiated into adipocytes for 4 days (FIG. 1E). A luciferase activity was normalized to a β-galactosidase activity and represented as a relative activity (fold change). All experiments were repeated three times, and bars in the graph represent mean±standard deviation. *, P<0.05; **, P<0.01
For this purpose, 293T cells were transiently transfected with PPARγ2 (0.5 μg), β-galactosidase (0.1 μg), FABP4-Luc reporter genes (0.2 μg) and sLZIP (0.1 μg). After the transfection, the cells were stimulated with or without 10 nM of RZD and 10 nM of TSA (FIG. 4A). A promoter activity was measured according to luciferase analysis. In the 293T cells, FABP4-Luc reporter genes, sLZIP, PPAR, β-galactosidase, and 100 nM of si-RNAs and HDAC1, 2, 3 and 8 for a control group were expressed. After the transfection, the cells were stimulated with or without 10 nM of RZD, and a promoter activity was measured (FIG. 4B). 293T cells were temporarily transfected with FABP4-Luc reporter genes, PPARγ2, β-galactosidase, HDAC3 (0.5 μg) and sLZIP (0.1 μg). After the transfection, the cells were stimulated with or without 10 nM of RZD, and luciferase analysis was performed (FIG. 4C). A luciferase activity was normalized to a β-galactosidase activity and represented as a relative intensity (fold change). All experiments were repeated three times, and bars in the graph represent mean±standard deviation. GFP-sLZIP expression constructs were expressed in C3H10T1/2 cells, rabbit anti-HDAC3 antibodies and Texas Red-labeled anti-rabbit antibodies were used and analysis was performed under a fluorescence microscope. The nucleus was stained with DAPI (FIG. 4D). […]

B1: N domains of sLZIP: N-terminal deletion mutant of sLZIP (1-228) (protein)
chain: MELELDAGDQDLLAFLLEESGDLGTAPDEAVRAPLDWALPLSEVPSDWEVDDLLCSLLSPPASLNILSSSNPCLVHHDHTYSLPRETVSMDLESESCRKEGTQMTPQHMEELAEQEIARLVLTDEEKSLLEKEGLILPETLPLTKTEEQILKRVRRKIRNKRSAQESRRKKKVYVGGLESRVLKYTAQNMELQNKVQLLEEQNLSLLDQLRKLQAMVIEISNKTSSSS
modifications: left off: a dimerising Fc or GST
For B1, the “PPARγ2 transcriptional activity (relative luciferase activity)” value was “inhibited”.

B2: sLZIP: human small leucine-zipper protein, isoform of LZIP, 354 amino acids, no transmembrane domain, GenBank FJ263669, SEQ ID NO: 1 (protein, listed as Homo sapiens)
chain: MELELDAGDQDLLAFLLEESGDLGTAPDEAVRAPLDWALPLSEVPSDWEVDDLLCSLLSPPASLNILSSSNPCLVHHDHTYSLPRETVSMDLESESCRKEGTQMTPQHMEELAEQEIARLVLTDEEKSLLEKEGLILPETLPLTKTEEQILKRVRRKIRNKRSAQESRRKKKVYVGGLESRVLKYTAQNMELQNKVQLLEEQNLSLLDQLRKLQAMVIEISNKTSSSSMYSSDTRGSLPAEHGVLSRQLRALPSEDPYQLELPALQSEVPKDSTHQWLDGSDCVLQAPGNTSCLLHYMPQAPSAEPPLEWPFPDLFSEPLCRGPILPLQANLTRKGGWLPTGSPSVILQDRYSG
In the case of B2, the “sLZIP-mediated PPARγ2 transcriptional activity” value (sLZIP 0.1 μg together with HDAC3 0.5 μg, with or without 10 nM RZD) is reported as “significantly down-regulated”, the “transcriptional activity of PPARγ2 (relative luciferase activity)” value (sLZIP 0.1 μg, cells treated with 10 nM TSA) is reported as “did not decrease the transcriptional activity of PPARγ2” and the “transcriptional activity of PPARγ2 (relative luciferase activity)” value (sLZIP 0.1 μg, no TSA) is reported as “inhibits the transcriptional activity of PPARγ2”. The “transcriptional activity of PPARγ2 (relative luciferase activity)” value (sLZIP 0.1 to 0.5 μg, with or without 10 nM RZD, PZD or TZD, 24 hours) was “inhibits the transcriptional activity of PPARγ2 in a concentration-dependent manner” and the “PPARγ2 transcriptional activity (relative luciferase activity)” value was “still inhibited the PPARγ2 transcriptional activity”.
